# Test results published in paper PMC9729196, “An in silico method to assess antibody fragment polyreactivity” (Nature Communications, 2022).
# B1: AT118i4h32 / wild-type human FLAG-AT1R (angiotensin II type 1 receptor) [human] (parent complex)
# chain 1: MAEVQLVESGGGLVQPGGSLRLSCAASGYIYRRYRMGWYRQAPGKGREFVAAISGGSSTNYADSVKGRFTISRDNSKNTVYLQMNSLRAEDTAVYYCAAYRIVSDPRVYWGQGTQVTVSSLE
# chain 2: MILNSSTEDGIKRIQDDCPKAGRHNYIFVMIPTLYSIIFVVGIFGNSLVVIVIYFYMKLKTVASVFLLNLALADLCFLLTLPLWAVYTAMEYRWPFGNYLCKIASASVSFNLYASVFLLTCLSIDRYLAIVHPMKSRLRRTMLVAKVTCIIIWLLAGLASLPAIIHRNVFFIENTNITVCAFHYESQNSTLPIGLGLTKNILGFLFPFLIILTSYTLIWKALKKAYEIQKNKPRNDDIFKIIMAIVLFFFFSWIPHQIFTFLDVLIQLGIIRDCRIADIVDTAMPITICIAYFNNCLNPLFYGFLGKKFKRYFLQLLKYIPPKAKSHSNLSTKMSTLSYRPSDNVSSSTKKPAPCFEVE
# Variants of: B1
# Test: flow cytometry on cells; parent: 100; read off a plot
row,Variant,percent of parent
1,chain 1 Y34G,~3 % of WT
2,chain 1 G56F,~54 % of WT
3,chain 1 Y100D,~12 % of WT
4,chain 1 S54V,~41 % of WT
5,chain 1 Y31R,~48 % of WT
6,"chain 1 G28D, chain 1 T59I",~99 % of WT

# Next, values leading:
row,percent of parent,Variant
1,~22 % of WT,chain 1 A98W
2,~8 % of WT,chain 1 R33D
3,~3 % of WT,chain 1 A99H
4,~17 % of WT,chain 1 R101D
